# No end group written: not given here.
# Tests used:
# [1] = target: T1, biotinylated cyclic ECL2 peptide of C5aR1 (human, also: biotinylated, position not given here, cyclic, way of cyclisation not given here); test: BLI, peptide on streptavidin sensor
# T1 peptide: RVVREEYFPPKVLC
# Source text: The epitope mapping was undertaken, using biolayer interferometry, on a series of exemplary anti-C5aR1 antibodies generated as described in Example 1. Briefly, for each antibody, biotinylated peptides representing ECL2, the N-terminus with tyrosine sulfation, and the N-terminus without tyrosine sulfation, were immobilized in a streptavidin biosensor. Subsequently, the biosensor was exposed to […] of antibody to detect antibody binding to the immobilized peptide. The results of the epitope mapping study are shown in Table 4 (“+” indicates binding to the listed peptide; “−” indicates lack of binding to the listed peptide).
# [2] = target: T2, human C5aR1 (complement component 5a receptor 1) (human, UniProt P21730 1-350, sulfated tyrosines at positions 11 and 14); test: flow cytometry on human neutrophils, titration 10^-7.5 to 10^-12 M
# T2 construct: on Expi293 cells, C5aR1-U937 cells or human neutrophils in flow cytometry; also called CD88; C5a anaphylatoxin chemotactic receptor 1
# T2 chain: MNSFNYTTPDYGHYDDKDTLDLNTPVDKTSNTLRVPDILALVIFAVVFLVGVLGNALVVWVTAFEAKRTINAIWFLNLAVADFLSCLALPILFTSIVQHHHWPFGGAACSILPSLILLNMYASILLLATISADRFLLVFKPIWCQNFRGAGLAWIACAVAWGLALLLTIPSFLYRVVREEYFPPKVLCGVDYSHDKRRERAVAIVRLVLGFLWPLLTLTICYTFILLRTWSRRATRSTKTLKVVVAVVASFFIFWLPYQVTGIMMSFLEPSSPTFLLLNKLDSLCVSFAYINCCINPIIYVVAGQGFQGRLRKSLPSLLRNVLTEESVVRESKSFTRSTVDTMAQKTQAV
# Description: Exemplary anti-C5aR1 antibodies generated as described in Example 1 were tested for binding to human neutrophils. Briefly, cryopreserved human neutrophils were obtained from Asarte Biologics.
Binder,binding result [1],binding result [2]
"Clone_402 (antibody, V domains shown) VH: QIQLVQSGPELKKPGETVKISCKASGYTFTTFGMSWVKQAPGKGLKWMGWINTNSGMPTYTDDFRGRFAFSLETSASTAYLQISSLKNEDTATYFCARKSLFYWGQGTTLTVSS VL: DVVMTQSPLTLSVTIGQPASISCRSSRSLLDSDGKTKLHWLLQRPGQSPKSLIYLVSKLDSGVPNRFTGGGSGTDFTLKINRVEAEDLGVYYCWQGTHFPWTFGVGTKLEIK",no binding (tested: 10 gg/mL (so in the source)),–
"Clone_184 (antibody, V domains shown) VH: QVQLQQSGAELVKPGASVKISCKASGYAFSRYWMNWVKQRPGKGLEWIGQIYPGDGDTKYNGKFKGKATLTADKSSSTAYMQLNSLTSEDSAVYFCTRSLGVWGTGTTVTVSS VL: not shown",no binding (tested: 10 gg/mL (so in the source)),–
"antibody 332 (antibody, V domains shown) VH: QVQLQQSDAELVKPGASVKISCKASGYTFTDHSIHWVKQRPEQGLEWIGYISPGNGDIKYDEKFKGKATLTADTSSSTAYMQLNSLTSEDSAVYFCKGPLLLRWRYFYPVDYWGQGTTVTVSS VL: DIVMTQSQKFMSSAVGDRVTITCKASQNVGAAVAWYQQKPGQSPKLLLYSASIRYTGVPDRFTGSGSGTDFTLTISNIQSEDLAHFFCQQYNSFPLTFGGGTKLEIK",no binding (tested: 10 gg/mL (so in the source)),binds
"antibody 335 (antibody, V domains shown) VH: QVQLQQSDAALVKPGASVKISCKASGYTFTDHAIHWVKQRPEQGLEWIGYISPGNGDIKYNEKFKGKATLTADKSSSTAYMQLNSLTSEDSAVYFCKGPLLVRWRYYITMDYWGQGTTVTVSS VL: DIVMTQSQKFMSTTVGDRVSITCKASQNVGAAVVWYQQKPGQSPKLLIYSASYRYTGVPDRFTGSGSGTDFTLTISNMQSEDVADYFCQQYNSFPLTFGGGTKLEIK",no binding (tested: 10 gg/mL (so in the source)),binds
"Clone_583 (antibody, V domains shown, also called Ab583; mAb583) VH: EVQLVESGGGLVKPGGSLKLSCAASGFTFNAYAMSWVRQTPEKRLEWVASISTGGNTYCPDSVKDRFTVSRDNVRNILYLQMSSLRSEDTAMYYCTRGYQRFSGFAYWGQGTLVTVS VL: DVVMTQTPLSPPVSLGYQASISCRSSQSLVHSNGNTYLNWYLQKPGQSPKLLIYKVSNRLSGVPDRFSGSGSGTDFTLKISRVETEDLGVYFCSQSTHVPYTFGGGTKLEIK",no binding (tested: 10 gg/mL (so in the source)),–

# From US20240076398A1 (VISTERRA, published 2024)
